For the test, the target named is T1, CCL2 (human, UniProt P13500 24-99).
T1 construct: CCL2, human, recombinant; source: bought: PeproTech
Put plainly: ELISA; chemokine coated on maxisorp plates (0.1-1.0 µg/ml in 0.1 M NaHCO3, pH 8.6), BSA block, biotinylated synthetic peptides in TBST-BSA for 45 min at RT, detected with HRP-streptavidin or AP-anti-biotin; fold binding at 10 and 100 ng/ml peptide. The following applies: both partners purified.

Where no end group is shown, it is not given here. The star is where a group is joined. Biotin = O=C1N[C@H]2[C@H](CS[C@H]2CCCCC(=O)*)N1

T1 sequence (P13500 24-99): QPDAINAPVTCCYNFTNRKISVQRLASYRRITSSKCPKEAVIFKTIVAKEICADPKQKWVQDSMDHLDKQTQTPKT

B1: BKT130 biotinylated synthetic peptide (peptide)
peptide: SIPSHSIHSAKAGGGSK(Biotin)G
modifications: also: biotin at C-terminus, format X12GGGSK-biotin-G
notes: BKT130 peptide; C-terminal tail of the linear peptide format X12GGGSK-biotin-G; also called BTK130; source: synthetic peptide (Weizmann Institute of Science)
For the molecule B1, the binding result was “binds”.

B2: BKT120 biotinylated synthetic peptide (peptide)
peptide: LDYPIPQTVLHHGGGSK(Biotin)G
modifications: also: biotin at C-terminus, format X12GGGSK-biotin-G
notes: BKT120 peptide; C-terminal tail of the linear peptide format X12GGGSK-biotin-G; also called BTK120; source: synthetic peptide (Weizmann Institute of Science)
For B2, the binding result is recorded as “binds”.

For the origin of these results see article PMC5703867, “Development of Novel Promiscuous Anti-Chemokine Peptibodies for Treating Autoimmunity and Inflammation” (Frontiers in Immunology, 2017).
